Experimental data: patent US20230406922A1 (SIMCERE ZAIMING PHARMACEUTICAL, published 2023)

T1: cynomolgus monkey CD19 on peripheral blood B cells (cynomolgus monkey (Macaca fascicularis), UniProt A0A2K5W8L9 20-557)
T1 construct: whole, on cells; also called cynomolgus monkey B cells
T1 sequence: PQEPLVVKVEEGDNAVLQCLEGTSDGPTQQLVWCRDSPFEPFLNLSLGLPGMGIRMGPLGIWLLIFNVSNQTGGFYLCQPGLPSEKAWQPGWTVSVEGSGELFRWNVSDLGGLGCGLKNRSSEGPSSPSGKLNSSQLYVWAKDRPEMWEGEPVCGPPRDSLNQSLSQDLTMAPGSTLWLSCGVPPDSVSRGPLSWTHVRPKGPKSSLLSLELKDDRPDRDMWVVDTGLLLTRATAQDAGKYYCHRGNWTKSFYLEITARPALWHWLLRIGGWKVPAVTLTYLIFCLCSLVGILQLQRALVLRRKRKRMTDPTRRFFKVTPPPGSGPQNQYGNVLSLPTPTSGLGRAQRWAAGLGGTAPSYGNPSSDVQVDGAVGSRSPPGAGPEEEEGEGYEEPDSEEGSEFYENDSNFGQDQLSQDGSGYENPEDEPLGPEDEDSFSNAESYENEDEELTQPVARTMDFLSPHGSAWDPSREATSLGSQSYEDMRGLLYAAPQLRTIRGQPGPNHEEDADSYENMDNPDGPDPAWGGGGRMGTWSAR

T2: monkey CD19, full length, on HEK293T cells (monkey, UniProt P15391 20-556 (human entry))
T2 construct: The entry holds the signal peptide; also called HEK293T-monkey CD19
T2 chain: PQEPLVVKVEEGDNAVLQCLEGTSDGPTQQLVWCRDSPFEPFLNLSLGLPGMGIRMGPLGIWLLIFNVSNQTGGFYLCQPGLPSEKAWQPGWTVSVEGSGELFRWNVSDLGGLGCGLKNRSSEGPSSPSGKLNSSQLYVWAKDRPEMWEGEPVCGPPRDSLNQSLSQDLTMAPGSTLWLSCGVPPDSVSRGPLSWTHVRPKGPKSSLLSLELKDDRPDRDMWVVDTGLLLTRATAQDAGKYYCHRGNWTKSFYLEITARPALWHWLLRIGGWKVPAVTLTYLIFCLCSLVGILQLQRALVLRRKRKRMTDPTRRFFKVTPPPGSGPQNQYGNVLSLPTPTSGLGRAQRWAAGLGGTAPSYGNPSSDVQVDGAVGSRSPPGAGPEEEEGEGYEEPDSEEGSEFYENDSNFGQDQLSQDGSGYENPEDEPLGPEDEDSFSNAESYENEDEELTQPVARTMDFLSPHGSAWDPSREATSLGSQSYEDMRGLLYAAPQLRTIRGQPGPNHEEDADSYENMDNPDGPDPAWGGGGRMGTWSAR

T3: murine CD19 protein (murine, UniProt P25918 19-287, limits assumed)
T3 construct: also called mouse CD19-his protein
T3 sequence (looked up): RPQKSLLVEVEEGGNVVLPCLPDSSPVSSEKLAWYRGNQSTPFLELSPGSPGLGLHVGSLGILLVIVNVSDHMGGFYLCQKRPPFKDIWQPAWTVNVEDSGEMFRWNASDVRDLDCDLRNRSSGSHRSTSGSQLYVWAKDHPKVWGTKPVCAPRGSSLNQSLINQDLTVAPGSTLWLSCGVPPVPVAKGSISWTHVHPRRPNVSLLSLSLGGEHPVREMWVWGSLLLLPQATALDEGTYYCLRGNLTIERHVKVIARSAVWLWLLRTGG


Assays:
[1] = molecular target: T1, cynomolgus monkey CD19 on peripheral …; assay: FACS on cynomolgus monkey PBMC, gated on CD20-positive B cells
Procedure: Monkey peripheral blood mononuclear cells were extracted from fresh cynomolgus monkey peripheral blood (purchased from Shanghai Medicilon Inc.) according to Ficoll-Paque Plus (purchased from GE Healthcare, Cat. No. 171440-02). […] The cells were incubated at room temperature for 1 h. […] The cells were incubated at room temperature for 30 min in the dark, washed 5 times, gently resuspended in PBS, and assayed and analyzed by FACS (FACS Canto™, purchased from BD Biosciences), in which CD20 was used as a marker for B cells.

[2] = molecular target: T2, monkey CD19, full length, on HEK293T …; assay: FACS on HEK293T-monkey CD19 cells
Procedure: (§1) For suspension cells Raji, the medium supernatant was discarded by direct centrifugation, and the cell pellet was washed twice with PBS. After cell counting of the cells obtained in the last step, the cell pellet was resuspended to 2×10⁶ cells/mL with a blocking solution [PBS+2% (w/w) BSA] and added into a 96-well FACS reaction plate at 50 μL/well. […] After the plate was centrifuged and washed 5 times with a PBS buffer, the results were assayed and analyzed by FACS (FACS Canto™, purchased from BD Biosciences). Data analysis was performed by software (CellQuest) to obtain the mean fluorescence intensity (MFI) of the cells. Then, analysis was performed by software (GraphPad Prism8), data were fitted, and EC₅₀ values were calculated.
(§2) HEK293T-monkey CD19 cells were subjected to the FACS assay and data analysis according to the method described in Example 4.2.

[3] = molecular target: T2, monkey CD19, full length, on HEK293T …; assay: FACS titration on HEK293T-monkey CD19 cells
Procedure: as §1, §2

murine CD19 protein = molecular target: T3, murine CD19 protein; assay: ELISA, murine CD19 coated
monkey CD19-his protein = monkey CD19-his protein (monkey); assay: ELISA, monkey CD19 coated
Procedure: After incubation for 2 h at 37° C., the plate was washed 3 times with PBS. […] After incubation for 1 h at 37° C., the plate was washed 5 times with PBS. A TMB substrate was added at 50 μL/well. After incubation at room temperature for 10 min, a stop solution (1.0 N HCl) was added at 50 μL/well. The OD450 nm values were read on an ELISA microplate reader (Multimode Plate Reader, EnSight, purchased from Perkin Elmer). […] The negative control antibody mIgG1 was an antibody against hen egg lysozyme, anti-hel-mIgG1 (purchased from Biointron, Cat. No. B118301), and the data in the table were OD450 nm values.
IgG control was mIgG1, S003-NB151-89 was a clone that is selected from a library constructed by peripheral blood collected from Alpaca immunized by human CD19-His and can bind to a monkey CD19-His protein, and was used as a positive control, and the data in the table were OD450 nm values.

proportion of positive cells to B cells (%) at 1 nM [1] [%] | proportion of positive cells to B cells (%) at 10 nM [1] [%] | proportion of positive cells to B cells (%) at 100 nM [1] [%] | EC50 [2] [nM] | maximum mean fluorescence intensity [2] [MFI] | EC50 (read off the curve) [3] [nM] | OD450 at 0.0001 nM (murine CD19 protein) [OD450] | OD450 at 0.001 nM (murine CD19 protein) [OD450] | OD450 at 0.01 nM (murine CD19 protein) [OD450] | OD450 at 0.10 nM (murine CD19 protein) [OD450] | OD450 at 1.00 nM (murine CD19 protein) [OD450] | OD450 at 10.00 nM (murine CD19 protein) [OD450] | OD450 at 100.00 nM (murine CD19 protein) [OD450] | OD450 at 0.0001 nM (monkey CD19-his protein) [OD450] | OD450 at 0.001 nM (monkey CD19-his protein) [OD450] | OD450 at 0.01 nM (monkey CD19-his protein) [OD450] | OD450 at 0.10 nM (monkey CD19-his protein) [OD450] | OD450 at 1.00 nM (monkey CD19-his protein) [OD450] | OD450 at 10.00 nM (monkey CD19-his protein) [OD450] | OD450 at 100.00 nM (monkey CD19-his protein) [OD450] | Binder
3 | 14 | 71 | 2.08 | 19500 | ~0.4 | – | – | – | – | – | – | – | – | – | – | – | – | – | – | 9G8-mIgG1 (antibody, V domains shown, Control anti-CD19 antibody with monkey cross-activity) VH: EVQLVQSGAEVKKPGESLKISCKGSGYSFTSYWIGWVRQMPGKGLEWMGIIYPGDSDTRYSPSFQGQVTISADKSISTAYLQWSSLKASDTAMYYCARGVSGIYNLHGFDIWGQGTLVTVSS VL: DIQMTQSPSSLSASVGDRVTITCRASQSISSYLNWYQQKPGKAPKLLIYAASSLQSGVPSRFSGSGSGTDFTLTISSLQPEDFATYYCQQGRFGSPFTFGQGTKVEIKR
– | – | – | – | – | – | 0.06 | 0.06 | 0.05 | 0.05 | 0.06 | 0.07 | 0.1 | 0.05 | 0.05 | 0.05 | 0.05 | 0.05 | 0.05 | 0.09 | FMC63-mIgG1 (antibody, V domains shown, Parent murine antibody; also called murine antibody FMC63) VH: EVKLQESGPGLVAPSQSLSVTCTVSGVSLPDYGVSWIRQPPRKGLEWLGVIWGSETTYYNSALKSRLTIIKDNSKSQVFLKMNSLQTDDTAIYYCAKHYYYGGSYAMDYWGQGTSVTVSS VL: DIQMTQTTSSLSASLGDRVTISCRASQDISKYLNWYQQKPDGTVKLLIYHTSRLHSGVPSRFSGSGSGTDYSLTISNLEQEDIATYFCQQGNTLPYTFGGGTKLEITR
